Patent US20230175069A1 (published 2023)

Assays:
[1] = target: T1, SRC (SRC Proto-Oncogene, Non-Receptor Tyrosine Kinase) (human, UniProt P12931 2-536); assay: co-immunoprecipitation with anti-SRC antibody from T47D cells expressing wtCCDC170, western blot with anti-CCDC170 antibody
T1 construct: Endogenous protein of T47D cells, in cell lysate

[2] = target: T2, HER3 (Erb-B2 Receptor Tyrosine Kinase 3) (human, UniProt P21860 20-1342); assay: co-immunoprecipitation with anti-HER3 antibody from T47D cells expressing wtCCDC170, western blot with anti-CCDC170 antibody
T2 construct: Endogenous protein of T47D cells, in cell lysate; also called ErbB3
T2 sequence (P21860 20-1342 limits assumed): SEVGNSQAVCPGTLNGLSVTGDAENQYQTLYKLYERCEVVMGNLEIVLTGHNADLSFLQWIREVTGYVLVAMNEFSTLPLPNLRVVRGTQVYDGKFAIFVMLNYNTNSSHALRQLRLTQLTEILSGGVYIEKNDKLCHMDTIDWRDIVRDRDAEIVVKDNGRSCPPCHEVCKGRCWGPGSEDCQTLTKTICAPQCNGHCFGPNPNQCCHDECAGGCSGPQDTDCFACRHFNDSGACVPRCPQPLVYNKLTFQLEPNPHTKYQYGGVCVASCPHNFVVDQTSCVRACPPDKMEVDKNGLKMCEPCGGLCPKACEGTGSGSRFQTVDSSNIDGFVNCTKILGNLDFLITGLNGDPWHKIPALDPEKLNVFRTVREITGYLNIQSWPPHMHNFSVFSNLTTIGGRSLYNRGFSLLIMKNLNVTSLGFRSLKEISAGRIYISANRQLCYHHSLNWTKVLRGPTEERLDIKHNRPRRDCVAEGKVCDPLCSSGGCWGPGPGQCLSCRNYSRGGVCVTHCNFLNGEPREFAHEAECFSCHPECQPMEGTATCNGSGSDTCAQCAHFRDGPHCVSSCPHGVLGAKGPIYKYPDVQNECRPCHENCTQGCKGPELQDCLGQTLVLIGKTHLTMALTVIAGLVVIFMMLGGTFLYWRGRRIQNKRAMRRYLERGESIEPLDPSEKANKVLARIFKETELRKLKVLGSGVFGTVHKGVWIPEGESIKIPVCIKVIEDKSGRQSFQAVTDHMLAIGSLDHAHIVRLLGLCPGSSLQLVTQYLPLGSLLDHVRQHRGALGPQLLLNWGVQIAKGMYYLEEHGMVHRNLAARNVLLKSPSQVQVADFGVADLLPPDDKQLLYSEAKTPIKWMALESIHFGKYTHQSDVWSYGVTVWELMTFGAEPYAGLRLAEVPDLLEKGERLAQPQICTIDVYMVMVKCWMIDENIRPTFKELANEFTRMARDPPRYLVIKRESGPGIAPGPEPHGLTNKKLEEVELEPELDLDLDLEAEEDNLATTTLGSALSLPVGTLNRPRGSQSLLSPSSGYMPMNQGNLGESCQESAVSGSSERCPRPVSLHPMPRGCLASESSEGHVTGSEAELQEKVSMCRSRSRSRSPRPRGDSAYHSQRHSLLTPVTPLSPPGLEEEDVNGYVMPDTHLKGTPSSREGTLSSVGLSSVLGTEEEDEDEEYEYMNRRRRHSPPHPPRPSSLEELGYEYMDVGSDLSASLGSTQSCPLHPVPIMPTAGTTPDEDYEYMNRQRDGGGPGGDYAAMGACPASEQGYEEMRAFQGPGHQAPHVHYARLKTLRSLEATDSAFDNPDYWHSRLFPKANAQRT

[3] = target: T3, HER2 (Erb-B2 Receptor Tyrosine Kinase 2) (human, UniProt P04626 23-1255); assay: co-immunoprecipitation with anti-HER2 antibody from T47D cells expressing wtCCDC170, western blot with anti-CCDC170 antibody
T3 construct: Endogenous protein of T47D cells, in cell lysate; also called HER2/neu

binding result [1]: no binding | binding result [2]: no binding | binding result [3]: no binding
B1: wild type CCDC170 (Coiled-Coil Domain Containing 170) (other)
chain: MSLDCTSHIALGAASPAPEETYDHLSEVPVTREQLNHYRNVAQNARSELAATLVKFECAQSELQDLRSKMLSKEVSCQELKAEMESYKENNARKSSLLTSLRDRVQELEEESAALSTSKIRTEITAHAAIKENQELKKKVVELNEKLQKCSKENEENKKQVSKNCRKHEEFLTQLRDCLDPDERNDKASDEDLILKLRDLRKENEFVKGQIVILEETINVHEMEAKASRETIMRLASEVNREQKKAASCTEEKEKLNQDLLSAVEAKEALEREVKIFQERLLAGQQVWDASKQEVSLLKKSSSELEKSLKASQDAVTTSQSQYFSFREKIAALLRGRLSMTGSTEDTILEKIREMDSREESRDRMVSQLEAQISELVEQLGKESGFHQKALQRAQKAENMLETLQGQLTHLEAELVSGGVLRDNLNFEKQKYLKFLDQLSQKMKLDQMAAELGFDMRLDVVLARTEQLVRLESNAVIENKTIAHNLQRKLKTQKERLESKELHMSLLRQKIAQLEEEKQARTALVVERDNAHLTIRNLQKKVERLQKELNTCRDLHTELKAKLADTNELKIKTLEQTKAIEDLNKSRDQLEKMKEKAEKKLMSVKSELDTTEHEAKENKERARNMIEVVTSEMKTLKKSLEEAEKREKQLADFREVVSQMLGLNVTSLALPDYEIIKCLERLVHSHQHHFVTCACLKDVTTGQERHPQGHLQLLH
notes: Ectopically expressed in T47D cells and assayed in cell lysate; also called wtCCDC170; WT
